# Measurements from patent US20230321189A1, “THERAPEUTIC AGENTS, PHARMACEUTICAL COMPOSITIONS, AND ASSOCIATED BIOMARKERS BASED ON TRK-B” (INSTITUTO DE MEDICINA MOLECULAR JOÃO LOBO ANTUNES, priority 2020, published 2023).
# “Also recorded” adds a separate entry of the source. Where no end group is shown, it is not given here.
# Columns and labels:
# [1] = tested on: bEnd.3 brain endothelioma cells; experiment: BEB in vitro integrity assay (FD4 probe); format: in vitro ADME; conditions: FD4 added after each TAT-TrkB translocation assay, 2 h
# Description: (§1) To evaluate the ability of the TAT-TrkB peptide to translocate the BEB, the inventors used a well-established in vitro model^15. It comprises a transwell system with an insert in which bEnd.3 brain endothelioma cells (ATTCC-CRL-2299, Lot. 59618606) are cultured for 9 days. In this model, the apical chamber replicates the blood compartment, while the basolateral chamber replicates the brain compartment (FIG. 7a). For these experiments, 6-FAM was fused to the N-terminal of the TAT-TrkB peptide, in order to detect the peptide by fluorescence. The TAT-TrkB-6-FAM peptide (5 μM, diluted in DMEM without phenol red) was delivered to the apical compartment. After incubation times of 1 h, 4 h and 24 h, in different inserts, medium from the apical and basolateral compartments was collected and fluorescence measured at 495 nm excitation and 517 nm emission wavelengths using the Varioskan LUX Multimode microplate reader (Thermo Scientific, Rockford, IL, USA ThermoFisher Scientific). Peptide translocation was quantified as the fluorescence detected in the basolateral compartment normalized to the sum of the fluorescence detected in both compartments. […] For these, FD4 fluorescent probe (diluted in DMEM without phenol red to a final absorbance below 0.1) was added to the apical compartment of the same inserts and incubated for 2 h. […]
# [2] = tested on: bEnd.3 brain endothelioma cells; conditions: TAT-TrkB-6-FAM 5 μM apical; 1 h, 4 h and 24 h
# Description: as §1
# TrkB-FL [3] = molecular target: T1, TrkB-FL (Rattus norvegicus, UniProt Q63604); experiment: Aβ-driven TrkB-FL cleavage in primary neuronal cultures (Western blot); format: cell-based; parameters: Western-blot of neuronal cultures; endogenous in cells; host or cells: primary cortical neuronal cultures from E17-E18 embryos; conditions: DIV8 neuronal cultures, peptide without linker, 20 μM (1, 5, 20 and 50 μM)
# Description: Primary neuronal cultures were prepared as routinely in the lab^6. Briefly, animals were deeply anesthetized with isoflurane ([…], Barcelona, Spain) in an anaesthesia chamber before being sacrificed by decapitation. Embryos (E17-E18) were rapidly removed from the uterus and brains were dissected and placed in cold Ca^2+- and Mg^2+-free Hank's Balanced Salt Solution (HBSS) (Gibco, Paisley, UK). Cerebral cortex was isolated, mechanically fragmented and digested with 0.025% (wt/vl) trypsin solution (Gibco, Paisley, UK) in HBSS for 15 min at 37° C. After digestion, cells were precipitated by centrifugation at 1200 rpm. The supernatant was removed and 20% Fetal Bovine Serum (FBS) (Gibco, Paisley, UK) was added to HBSS. […] To obtain single cells and avoid cellular clusters or tissue fragments, the suspension was filtered with a nylon filter (BD FalconTM Cell Strainer 70 μM, Thermo Fisher Scientific, Waltham, MA, USA) and cell density was determined by counting cells in a 0.4% trypan blue solution using a hemacytometer. […] Finally, immunoreactivity was detected using the ECL system (ECL chemiluminescence detection system, GE Healthcare), an appropriate exposure time in a ChemiDoc (Bio-Rad, XRS^+) and quantified by the digital densitometry tool of ImageJ 1.45 software (Bethesda, MD, USA). […]
# TrkB-FL [4] = molecular target: T1, TrkB-FL; experiment: Calpain in vitro assay, adult rat brain cortex homogenate (Western blot); format: biochemical; parameters: rat cortical tissue or neuronal cultured cells were homogenized in Radio Immuno Precipitation Assay (RIPA) buffer; from tissue; host or cells: adult rat brain cortex homogenate (100 μg protein); conditions: peptide without linker 20 μM, m-calpain 1 or 2 EU, CaCl2 2 mM
# Description: For calpain enzymatic assays, rat cortical tissue or neuronal cultured cells were homogenized in Radio Immuno Precipitation Assay (RIPA) buffer, containing 50 mM Tris-HCl [pH=7.5], 150 mM NaCl, 5 mM ethylenediamine tetra-acetic acid, 0.1% sodium dodecyl sulfate (SDS), 1% [v/vl] Triton X-100, protease inhibitors (Roche, Penzberg, Germany) and phosphatase inhibitors (10 mM NaF and 5 mM Na3VO4). For tissue homogenization, Vibracell VC250 Ultrasonic Liquid Processor was used (Sonics & Materials, Inc, CT, USA). Protein concentration was measured using Bio-Rad DC reagent (Bio-Rad Laboratories, Berkeley, CA, USA) after homogenates clarification by centrifugation (16,000 g, 4° C., 10 min). The purified rat m-calpain (1 or 2 enzymatic units, EU) (Calbiochem, San Diego, CA, USA) was incubated for 30 min at 25° C. in a 100 μL final volume of lysis buffer containing the homogenate protein (100 μg for rat brain cortex experiments and 65 μg for neuronal cultured cells), 2 mM of CaCl2 and TAT-TrkB peptide (5, 20 or 50 μM). […] Finally, immunoreactivity was detected using the ECL system (ECL chemiluminescence detection system, GE Healthcare), an appropriate exposure time in a ChemiDoc (Bio-Rad, XRS^+) and quantified by the digital densitometry tool of ImageJ 1.45 software (Bethesda, MD, USA). […]
# [5] = listed as TAT-TrkB without a linker sequence
# T1 sequence (Q63604 32-821): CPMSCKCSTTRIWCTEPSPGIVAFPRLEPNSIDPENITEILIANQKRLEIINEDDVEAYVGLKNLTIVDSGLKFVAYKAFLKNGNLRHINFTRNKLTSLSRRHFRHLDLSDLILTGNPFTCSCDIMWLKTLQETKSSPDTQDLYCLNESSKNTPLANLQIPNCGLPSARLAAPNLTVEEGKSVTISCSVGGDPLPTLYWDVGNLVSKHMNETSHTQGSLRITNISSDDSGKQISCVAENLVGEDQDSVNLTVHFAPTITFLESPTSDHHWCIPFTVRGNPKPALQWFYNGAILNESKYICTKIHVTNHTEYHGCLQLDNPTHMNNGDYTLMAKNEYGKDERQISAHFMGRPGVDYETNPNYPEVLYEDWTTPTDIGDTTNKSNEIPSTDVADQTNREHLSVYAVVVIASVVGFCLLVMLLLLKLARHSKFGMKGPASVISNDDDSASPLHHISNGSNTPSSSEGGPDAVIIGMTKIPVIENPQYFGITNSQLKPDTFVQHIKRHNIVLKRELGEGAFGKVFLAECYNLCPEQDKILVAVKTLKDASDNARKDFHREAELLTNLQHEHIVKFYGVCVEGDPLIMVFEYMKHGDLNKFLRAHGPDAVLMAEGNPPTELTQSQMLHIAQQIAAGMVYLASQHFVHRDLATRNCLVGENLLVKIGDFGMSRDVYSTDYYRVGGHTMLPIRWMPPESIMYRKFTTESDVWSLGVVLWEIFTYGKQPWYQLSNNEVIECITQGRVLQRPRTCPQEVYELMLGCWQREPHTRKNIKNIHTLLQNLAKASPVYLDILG
Sequence,BEB integrity (clearance of FD4 from the apical chamber) [1],translocation of the BEB [2],TrkB-FL cleavage and TrkB-ICD formation with Aβ incubation (TrkB-FL [3]),TrkB-FL cleavage and TrkB-ICD formation with Aβ incubation (TrkB-FL [3]; [5]),TrkB-FL cleavage and TrkB-ICD formation by m-calpain (TrkB-FL [4]),TrkB-FL cleavage and TrkB-ICD formation by m-calpain (TrkB-FL [4]; [5])
YGRKKRRQRRRKKFGITNSQLKP [TAT-TrkB],without affecting its integrity; also recorded: negligible,translocated the BEB overtime,,,,
"YGRKKRRQRRRPQYFGITNSQLKPDTF [SEQ ID NO: 25, first version of TAT-TrkB without the linker]",,,not able to prevent TrkB-FL cleavage,not prevented,not able to prevent TrkB-FL cleavage,not prevented
